In US20210040175A1:

Biological target: human CD20 (human) (UniProt P11836)
Experiment: cell-based or functional assay

UniProt P11836, sequence (P11836 whole entry): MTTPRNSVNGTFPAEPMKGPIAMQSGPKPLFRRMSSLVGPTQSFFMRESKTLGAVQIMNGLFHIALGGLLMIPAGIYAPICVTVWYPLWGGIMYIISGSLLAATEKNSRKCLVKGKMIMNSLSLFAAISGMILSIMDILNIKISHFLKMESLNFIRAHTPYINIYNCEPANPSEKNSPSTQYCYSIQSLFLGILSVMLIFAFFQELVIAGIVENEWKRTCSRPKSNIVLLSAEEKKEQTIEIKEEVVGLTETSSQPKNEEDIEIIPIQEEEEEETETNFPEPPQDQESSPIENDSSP

ADCC by haNK cells for SUP-B15^CD20 at the highest 10:1 ET ratio: 60%
Substance: Rituximab (antibody)
